Data as given in the supplement of paper PMC12764529.
± gives the half width of the 95% confidence interval.

Tests used:
[1] = folding stability dG unfold from trypsin proteolysis; higher = more stable
Procedure, shortened: (§1)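 Unfolding free energy was derived, per protease or combined, against a sequence-predicted unfolded-state K50 and a shared folded-state K50, starting from K50 inferred by Bayesian fitting of sequencing counts. Digestion with trypsin and chymotrypsin was carried out on designed mini-proteins under 80 residues without cysteine in a PA-tagged cDNA display construct. Only designs with AlphaFold2 dimer inter-PAE above 15 were kept.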

[2] = folding stability dG unfold from chymotrypsin proteolysis; higher = more stable
Procedure, shortened: as §1

[3] = folding stability dG unfold (combined trypsin and chymotrypsin); higher = more stable
Procedure, shortened: as §1

Sequence	folding stability dG unfold [1]	folding stability dG unfold [2]	folding stability dG unfold [3]
DDWVTLPVEIWIPVRNPDGKPLTPEQVKETANSIRNELARNHGIDVEVDVKVEPVGPNGYYRINATVTIRPS [r1_231_TrROS]	2.23 ± 0.1 kcal/mol	2.98 ± 0.055 kcal/mol	2.72 ± 0.14 kcal/mol
SAGGSAGGMKTVTTPVYAVMPEEEAEALAKELEEKYPNVEIEVEREELPDGRVRVTITVTKPLGSAGGSAGG [r6_105_JUSTAS]	1.19 ± 0.022 kcal/mol	1.55 ± 0.054 kcal/mol	1.4 ± 0.067 kcal/mol
SAGGSAGGSAPTSSVVTFPYESPEEARERARELAEEERARRGVRFRVEYDPATGTVTLTAVESAGGSAGGSA [r18_368_JUSTAS]	0.673 ± 0.064 kcal/mol	0.926 ± 0.12 kcal/mol	0.859 ± 0.13 kcal/mol
SAGGMPPEELEAASLEERIARVRAAGLETATVRRPDGSTLTIDLGEEGPVTITTTTPPGETTTATLPSAGGS [r8_51_JUSTAS]	-1.04 ± 0.55 kcal/mol	0.975 ± 0.042 kcal/mol	0.654 ± 0.08 kcal/mol
SKKVKEITIEGAPPGAKVTITVEEKGDKLIVRVEVERNGKTETFEVEMTLDELKALLDAGYTIRITEVIPSA [r9_1021_TrROS_Hall]	2.04 ± 0.15 kcal/mol	2.12 ± 0.086 kcal/mol	1.99 ± 0.35 kcal/mol
SAGGSAGGSITVEVEVEIVDEVEDPNTQGYRPVRVSRIPITIPVPESWSEEDIEAAVKEAIEKASAGGSAGG [r6_494_JUSTAS]	1.1 ± 0.047 kcal/mol	2.13 ± 0.022 kcal/mol	1.7 ± 0.15 kcal/mol
SAGGSAGGKIKPGEKVKVKVKIKNKNGEVFEATATVVDGKIFIEVDGKIYEISADDIEEIEVEPSAGGSAGG [r6_132_TrROS_Hall]	1.47 ± 0.042 kcal/mol	2.92 ± 0.099 kcal/mol	2.37 ± 0.22 kcal/mol
SMVIPPGSRAEFRLEDVPVRLEVEEGSGKVHFRVFSPENPDEEVFEAEFDINDLKPLDLPPELREAFEKESA [r9_1051_TrMRF]	0.652 ± 0.057 kcal/mol	1.18 ± 0.32 kcal/mol	0.955 ± 0.18 kcal/mol
SAGGGRPILFRPPDGSVEVVPVPADATLEEVKEVAEAAAAARGYTELSFDPATETVTIDLGGDRVEAASAGG [r13_572_JUSTAS]	-1.46 ± 0.47 kcal/mol	0.824 ± 0.024 kcal/mol	0.426 ± 0.049 kcal/mol
SAGAHTVSVHYVEPGSKKLSSVETSEITLEPGEELPLDEVAARFPSENYEVTAQEEPDAITITIYVYRGSAG [r5_269_JUSTAS]	0.303 ± 0.062 kcal/mol	0.522 ± 0.27 kcal/mol	0.547 ± 0.087 kcal/mol
SAGGSAGMNSEITLTIPVPHPRDEEGRVLPLSPEAIEKELKEKGYNVKIKEVKTSPSTITVTLKIISAGGSA [r15_225_JUSTAS]	0.864 ± 0.053 kcal/mol	1 ± 0.082 kcal/mol	0.957 ± 0.072 kcal/mol
SAGGSKPVKVTVRRDPKNPDKWTVTVTAGDKTTTLTFDPNDEAAVRAALEAALPADEVLEELEFEDLLSAGG [r13_519_JUSTAS]	2.8 ± 0.12 kcal/mol	2.99 ± 0.043 kcal/mol	2.88 ± 0.17 kcal/mol
SAGWIIKIYFPDKKKEIMISRFPDGQWWMVQVHDKKGEPRQTIPAGMPVDELLKDFPDAKVEVYPFEPPSAG [r5_314_TrROS]	1.55 ± 0.039 kcal/mol	2.59 ± 0.051 kcal/mol	2.21 ± 0.086 kcal/mol
SMEPGELRLRAKVPLRIVNPDGEEIADIEIEVRSIEELEEAIAEAARELAERLGRPDAPVVIDDIEVEDESA [r9_376_TrMRF]	0.239 ± 0.19 kcal/mol	0.643 ± 0.14 kcal/mol	0.482 ± 0.23 kcal/mol
SGLKDVISVTVTQSPTAGEVPVVTAYSPDGSRTFNLAPEETEAFLKALREAGYNVVVTDRVFVPVPAELGSA [r9_607_JUSTAS]	1.676 ± 0.016 kcal/mol	1.38 ± 0.052 kcal/mol	1.56 ± 0.052 kcal/mol
SAGGSAGGSMSEELLAEGPVRIRVRVRNKDGSVEEIEVEAGEEIELPEELKNQDVEIVSIEPVSAGGSAGGS [r12_161_TrROS_Hall]	0.838 ± 0.058 kcal/mol	2.15 ± 0.088 kcal/mol	1.74 ± 0.089 kcal/mol
SAGGMESTSIPLEFKFEGDEEKAKKKVEEEAKKIAEEKGIEIKIEVKFDPNKPTATVTILVKGKEVEESAGG [r13_845_JUSTAS]	-0.411 ± 0.058 kcal/mol	-0.281 ± 0.25 kcal/mol	-0.285 ± 0.22 kcal/mol
SKKIIIKITITDPKNKKKIKITEIIFDKKTKKIIIKIEVENVKNKEKLKSKEDVLEAIKKLLEKLGFKPISA [r9_258_TrROS_Hall]	1.81 ± 0.23 kcal/mol	2.47 ± 0.35 kcal/mol	2.25 ± 0.47 kcal/mol
SAGGSAGGSAEKGIAFILLVTEEGDLEKALETAEELKKELEEKTGKPVEVVVNIFVVEPELFSAGGSAGGSA [r18_515_TrMRF]	1.81 ± 0.048 kcal/mol	2.38 ± 0.084 kcal/mol	2.24 ± 0.14 kcal/mol
SAGGAPVTVREEELPENSKLITIEYPDGLTLEVLEYPDKVLVREWDTATGKELSSRTLTHEELEKLLSAGGS [r8_476_JUSTAS]	1.81 ± 0.052 kcal/mol	2.41 ± 0.034 kcal/mol	2.19 ± 0.14 kcal/mol
SAGGFLEAIKNGKPVIFHVLVKHPGSGEVEEYPILVHPDKPIDLEKLIKELFPEDFEAEIFVSDFGFSAGGS [r8_127_TrMRF]	1.3 ± 0.13 kcal/mol	2.11 ± 0.058 kcal/mol	1.89 ± 0.089 kcal/mol

Sequence	folding stability dG unfold [1]	folding stability dG unfold [2]	folding stability dG unfold [3]
SAGGSAGGMKTITIELPPGPVRIRVRLAATGEEVTVEVDAETPTVTITIPEEGAEIVEIEIEPVSAGGSAGG [r6_977_TrROS_Hall]	2.06 ± 0.065 kcal/mol	2.66 ± 0.13 kcal/mol	2.59 ± 0.18 kcal/mol
SAMIEVINATDPVTGKPYTITREGEGITVTDPETGKTYAATKDGDTITLDAGDTPLTLTPVSTVPESLLSAG [r14_208_JUSTAS]	0.839 ± 0.041 kcal/mol	0.989 ± 0.16 kcal/mol	1.01 ± 0.1 kcal/mol
SAGMEIKYTITVSLSSGQTLGTKTITDPGKSIEEIVKEFAKIPGLTLITVTVTNPDGTPTTVTIPVNPSAGG [r19_269_JUSTAS]	2.24 ± 0.059 kcal/mol	3.072 ± 0.022 kcal/mol	2.79 ± 0.051 kcal/mol
SAGGSAGGSAGFYKAKLKILKTKVYSNEKGTKKKTYKPVLILEELIPPKIPKELWEKLNKSAGGSAGGSAGG [r11_318_TrMRF]	0.836 ± 0.3 kcal/mol	0.528 ± 0.4 kcal/mol	0.55 ± 0.57 kcal/mol
SAGGSASLNLTPDDNVTLTVSTPDGSGATVEVKVEKLPDGTIKLTETVTWPDGTVSTRTSTISTKASAGGSA [r15_476_JUSTAS]	1.08 ± 0.045 kcal/mol	0.598 ± 0.028 kcal/mol	0.893 ± 0.041 kcal/mol
SAGGEKVTVTVTTETKTVTVTVYKAPAPKFKVTEITLELDENGNLRLTIKLENGETLEFDSLEDLLAALSAG [r5_618_TrROS_Hall]	2.77 ± 0.079 kcal/mol	3.17 ± 0.15 kcal/mol	2.73 ± 0.3 kcal/mol
NINPEFMEKIVNEIANRMNQQGWKIKKVDIEPYPNGMIDIKVNGREIEFPWPNGRWFRIKVEAKRVPPEQRS [r1_31_TrROS]	1.93 ± 0.027 kcal/mol	2.87 ± 0.076 kcal/mol	2.41 ± 0.076 kcal/mol
SAGGSAEKPVRTLEITVTVPPGQPTPEELARALAEELGVEVTRVEVVRVERNEDGELTVTVRVEVKSAGGSA [r15_654_TrROS_Hall]	3.2 ± 0.21 kcal/mol	2.5 ± 0.14 kcal/mol	2.99 ± 0.14 kcal/mol
SAGGSAGGSAGDVPPSETVTITVSSEAEKEAIKKEHPEVNLTFTEAEPPVAFDPTSDVTASAGGSAGGSAGG [r17_126_JUSTAS]	0.842 ± 0.096 kcal/mol	1.27 ± 0.15 kcal/mol	1.21 ± 0.17 kcal/mol
SAGGSAGGEVKTIEIEIEITDEDGRKYRIKMEAEVLPNGEIIIRMEIEDEETNETYEMTIVLKPSAGGSAGG [r6_726_TrROS_Hall]	3.57 ± 0.19 kcal/mol	4.55 ± 0.12 kcal/mol	4.35 ± 0.18 kcal/mol
SAGGSAITIEVTMNPNGYMGIRLRDPGNGEEIQIPFPMEPGQNPEDVRNWAREIVDELKKDGWRIYSAGGSA [r15_1022_TrROS]	1.28 ± 0.019 kcal/mol	1.76 ± 0.11 kcal/mol	1.59 ± 0.038 kcal/mol
SAGMKSLTITETVTDPNSDNPITIITDPVTGKVIKLYPDGTATVYDPNNPNKSTTYKMSPEEVIEKMSSSAG [r5_491_JUSTAS]	0.0921 ± 0.053 kcal/mol	0.967 ± 0.088 kcal/mol	0.673 ± 0.061 kcal/mol
SAGGSAMVMITIKIKFPGNEVEINMPAEDLDELLSHPELGDNFEITEIEVMPIPPPPVDPEQAEEKSAGGSA [r15_460_TrROS]	1.21 ± 0.15 kcal/mol	0.885 ± 0.11 kcal/mol	1.03 ± 0.24 kcal/mol
SALSASELAKRVRDRIKELSNEEGYNVDIKVDVQPNEDGSVTVHIQFDSPWMIKRIKEKLPPGVNVEIMSAG [r14_491_TrROS]	3.15 ± 0.073 kcal/mol	2.421 ± 0.021 kcal/mol	2.75 ± 0.05 kcal/mol
DMEPEPFTIELPNVKIEVQVYRTPNKLSVNAPIEFPNGKNLTISFKYEPTPDGIKLEISIMIPKKAIEKLLS [r1_153_TrROS]	2.33 ± 0.097 kcal/mol	3.44 ± 0.1 kcal/mol	3.1 ± 0.3 kcal/mol
SPPVSTTTPVPDPENGVVVATVTLTTDPTTGEKTLILKSPEGKTKTVTLSPDETFPVEGLPKGLTATSSVSA [r9_1150_JUSTAS]	-0.942 ± 0.47 kcal/mol	0.437 ± 0.082 kcal/mol	0.0862 ± 0.14 kcal/mol
SAGGSAGGAFTVTLPDGRPVRVRLLGATFTFEVRIPPGVPDVVPGAKPDEVVKVTRVVLVVSLDSAGGSAGG [r6_907_TrMRF]	2.82 ± 0.13 kcal/mol	4.57 ± 0.096 kcal/mol	4.16 ± 0.14 kcal/mol
SAGGSAGGSAGGLPPFDLGFESVEVEEVFPDGPVVVTVRLPDRTVRLVVVGGRIVRVEPSSAGGSAGGSAGG [r17_396_TrMRF]	1.68 ± 0.036 kcal/mol	1.97 ± 0.048 kcal/mol	1.75 ± 0.085 kcal/mol
SAGPRPIEIYVDPDGMINIRFPNNGREINIPIPKGAEIEIIELPDDYIVIEIKFGGETREFWIPPEDISAGG [r19_309_TrROS]	4.04 ± 0.13 kcal/mol	3.08 ± 0.064 kcal/mol	3.46 ± 0.076 kcal/mol
SAGGSAGGSAETVTITLTVPPGASVEEILAALKAKYPDITSVSVERREDGYLKVTVTVRLDSAGGSAGGSAG [r3_371_TrROS_Hall]	5.28 ± 0.47 kcal/mol	4.02 ± 0.068 kcal/mol	4.46 ± 0.074 kcal/mol
SAGGSAGGSAGGDVKVTVTVTVDPETGEPVVEVTLELPGDRAIRARFTPDGRLLSVEEVDSAGGSAGGSAGG [r7_454_TrMRF]	3.79 ± 0.25 kcal/mol	3.01 ± 0.16 kcal/mol	3.51 ± 0.21 kcal/mol
